The source of these data is patent US20160376596A1 (BAVARIAN NORDIC A S, published 2016).

The assay addresses T1, B19 protein of chorioallantois vaccinia virus Ankara (CVA) (Vaccinia virus, strain Ankara (CVA), UniProt P23998 20-351).
T1 construct: also called orthopoxviral B19 protein
Put plainly: statement in Example 3; no assay described for IFN-β.

B1: murine IFN-beta (ligand)
chain: INYKQLQLQERTNIRKCQELLEQLNGKINLTYRADFKIPMEMTEKMQKSYTAFAIQEMLQNVFLVFRNNFSSTGWNETIVVRLLDELHQQTVFLKTVLEEKQEERLTWEMSSTALHLKSYYWRVQRYLKLMKYNSYAWMVVRAEIFRNFLIIRRLTRNFQN
notes: also called IFN-β; murine IFN-β
On to B1, for which the binding result is given as “no binding”.
